The record followed here is patent publication US6822073 (KIMBERLY CLARK WORLDWIDE, dated 2004).

Bridges are numbered along the chain shown (N, C = ends). Where no end group is shown, it is not given here.

Assay [1] addresses T1, bovine pancreatic trypsin (bovine, UniProt P00760 24-246).
T1 construct: It was dialyzed into the ITC buffer and flowed over the chip in SPR
Briefly: ITC, SAP-2 (1.0 mM) injected into trypsin (20 µM), 25 °C (FIG. 8). For orientation: ITC needs no label: the signal is the heat of the interaction.

In assay [2] the target is T1, bovine pancreatic trypsin. Briefly: isothermal titration calorimetry, 30 °C. The method, then: Figure 6: FIG. 6 provides an ITC analysis of the interaction between SAP and bovine pancreatic trypsin. SAP was dissolved in 20 mM cacodylate (pH 7.0), 20 mM NaCl at a final concentration of 2 mM. Trypsin was dialyzed into the same buffer and was used in the calorimeter cell at a concentration of 20 µM. No binding is evident throughout the titration. The temperature was maintained at 30° C. Forty injections of 5 µL each were employed with a 240 second re-equilibrium time between injections.
The ability of SAP, SAP-1, and SAP-2 to bind bovine pancreatic trypsin was measured by isothermal titration calorimetry (ITC). […] Under all experimental conditions, there is no detectable binding.

In assay [3] the target is T1, bovine pancreatic trypsin. The experiment in a line: ITC, SAP-1 (1 mM) injected into trypsin (20 µM), 293 K. The method, then:
Figure 7: FIG. 7 provides an ITC analysis of the interaction between SAP-1 and bovine pancreatic trypsin. SAP-1 was dissolved in 20 mM cacadylate (pH 7.0), 20 mM NaCl at a final concentration of 1 mM. Trypsin was dialyzed into the same buffer and was used in the calorimeter cell at a concentration of 20 µM. The temperature was maintained at 20° C. Forty injections of 5 µL each were employed with a 240 second re-equilibrium time between injections.

In assay [4] the target is T1, bovine pancreatic trypsin. The experiment in a line: ITC, SAP-1 injected into trypsin, 303 K.

T1 sequence (P00760 24-246): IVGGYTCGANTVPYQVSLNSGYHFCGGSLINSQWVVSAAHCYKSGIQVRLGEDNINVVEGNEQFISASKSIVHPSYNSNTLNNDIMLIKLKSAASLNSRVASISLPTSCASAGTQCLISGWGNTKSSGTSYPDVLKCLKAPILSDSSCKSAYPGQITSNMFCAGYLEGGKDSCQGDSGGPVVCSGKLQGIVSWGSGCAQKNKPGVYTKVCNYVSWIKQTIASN

B1: SAP-2 (SAP backbone with the library-selected YKLKY insert) (designed binder)
chain: CPSQPTYPGDPYKLKYGPVEDLIRFYDNLQQWLNCVTAAC
notes: It was expressed in E. coli; In SPR it was coupled to the chip through the C-terminal cysteine thiol; also called recombinant SAP-2
In assay [1], B1 displayed a Ka of 640000 M⁻¹, a Stoichiometry of 0.995, a ΔH of -31.2 kcal/mol and a ΔS of -16.2 cal mol^-1 K^-1.

B2: SAP (Synthetic Antibody Peptide), parental peptide backbone (designed binder)
chain: MCPSQPTYPGDPGPVEDLIRFYDNLQQWLNCVTAAC
modifications: disulfide 2-31
notes: Re-engineered avian pancreatic polypeptide with no insert; It was expressed in E. coli from pSAPe and purified; also called SAP peptide; SAP molecule
Turning to B2, the binding result in assay [2] was “no binding”.

B3: SAP-1 (SAP backbone with the PYRIRF insert from Bovine Pancreatic Trypsin Inhibitor) (designed binder)
chain: CPSQPTYPGDPPYRIRFGPVEDLIRFYDNLQQWLNCVTAAC
notes: It was expressed in E. coli; In SPR it was coupled to the chip through the C-terminal cysteine thiol
As for B3, in assay [3], the Ka was found to be 1.65e+06 M⁻¹, the Stoichiometry came out at 0.975, the ΔH is -26.1 kcal/mol and the ΔS was -11.6 cal mol^-1 K^-1. In assay [4], this molecule had a Ka of 2.4e+06 M⁻¹, a Stoichiometry of 0.99, a ΔH of -15.4 kcal/mol and a ΔS of -21.1 cal mol^-1 K^-1.
